This note sets out measurements from US20200392219A1, “EXTRACELLULAR VESICLES COMPRISING MEMBRANE-TETHERED TGF-BETA, COMPOSITIONS AND METHODS OF USE THEREOF” (TRUSTEES OF TUFTS COLLEGE, priority 2017, published 2020).

This assay deals with CD4+ T cells (ConA-stimulated PBMC). Put plainly: ConA mitogen-induced CD4+ T cell proliferation in CFSE-stained PBMC (PBMC responder/suppression assay). The assay is classed as cell-based, canine. The conditions noted are these: for effect of pre-treating WJ-MSC EV on their suppression of CD4+ T cell division: 0.1% Triton-X, 2 μg/ml RNAse A, proteinase K 30 min 37°C, heparinase 0.006 U/ml 3 hours, 10^4 EV:1 PBMC. The method, then: Serum-free culture medium from canine Wharton's Jelly mesenchymal stem cells (WJ-MSC: CD44^+, CD90^+, CD34^−, CD45^−, MHCII^−, n=6 cell lines) was collected after 48 hours, and extracellular vesicles (WJ-EV) were isolated by differential centrifugation. WJ-EV output was assessed using single vesicle nanoparticle tracking analysis (NTA). CFSE-stained peripheral blood mononuclear cells (PBMC) were collected from healthy dogs (n=8), exposed to Concanavalin A mitogen (ConA; 5 μg/ml) and co-incubated with WJ-MSC (1:10) across transwell membrane (0.4 μm pore size) or with WJ-MSC EV (1:10^4)±10 μM SB431542 (TGFβR1 inhibitor) or TGF-β neutralizing (e.g., inhibiting) antibody (Ab) for 72 hours. Analysis of CFSE fluorescence using FlowJo (v7.6.5) yielded % CD4^+ cells that had undergone division (T-cell proliferation).
PBMC responder assay: Twelve healthy adult purpose-bread Beagle dogs (5 neutered males, 7 spayed females) housed at the Laboratory Animal Medicine department at the Cummings School of Veterinary Medicine at Tufts University served as blood donors under an approved protocol. […] or WJ-MSC were tested in triplicate against a minimum of 3 different PBMC donor cell samples (see Figure legends for ‘n’ of each experiment). Healthy status was confirmed by clinical examination, and hematological and serum biochemical testing within six months of blood sampling. All dogs were fasted for 12 hours prior to peripheral blood sampling. Peripheral blood samples were taken via jugular venipuncture using a 21 gauge needle, and blood was immediately placed into an EDTA collection tube and rotated 1-2 times gently. Blood was diluted 1:1 with cold PBS or centrifuged (1300×g, 10 min) prior to dilution 1:2 in PBS, followed by density-gradient centrifugation using Ficoll-Paque (density 1.077; GE Healthcare Life Sciences) to harvest peripheral blood mononuclear cells (PBMC). PBMC were washed in RPMI (Life Technologies) supplemented with 10% heat-inactivated fetal bovine serum (Gibco), […] (Life Technologies), 100 μM β-mercaptoethanol (Sigma-Aldrich), 10,000 U/ml penicillin-streptomycin, 2 mM L-glutamine (Life Technologies), and 2.2 mg/mL of sodium bicarbonate (Thermo Fisher Scientific) (complete RPMI, ‘cRPMI’). For mitogen induced lymphocytes proliferation assays, PBMC were suspended in 1 ml cRPMI and 0.5 μof 10 mM carboxyfluorescein succinimidyl ester (CFSE, Thermo Fisher Scientific) and were incubated (10 min). For initial characterization of WJ-MSC effects on responder PBMC, PBMC were plated on a 24-well plate on the top of a 0.4 μm Transwell (Corning) across from the WJ-MSC in a 10:1 ratio (PBMC:MSC) in a total volume of 1 ml medium (n=3 technical replicates/sample). All plates were incubated at 37° C. in the dark for 72 hours prior to analysis.
Dose-responses of TV MSC-EV: To investigate the dose response of PBMC to WJ-MSC EV, the […] were plated on a 96-well plate in cRPMI with addition of 1 mM ATP, with or without 5 μg/ml Concanavalin A (ConA, Sigma-Aldrich). Responder PBMC were incubated with WJ-MSC EV in a total volume of 200 μL medium (n=3 technical replicates per sample). PBMC were incubated with WJ-MSC EV in a 1:10^2, 1:10^3, or 1:10^4 (PBMC:EV) ratio. After 72 hours of incubation, the PBMC were collected and surface stained for CD4 (rat anti-canine CD4-Alexa 647, clone YKIX302.9, AbD Serotec). Cells were stained for 30 minutes, washed twice with cold PBS and 5% FBS, and resuspended in 200 μl PBS and 5% FBS with 5 μl 7AAD (Becton Dickinson) for analysis by flow cytometry (Accuri C6, Becton Dickinson). The effect of WJ-MSC or WJ-MSC EV on CD4-positive (CD4^+) T cell (i.e., T helper cell) proliferation (percentage of cells proliferating, number of divisions for proliferating cells) was measured by evaluating CFSE fluorescence utilizing the FlowJo® proliferation platform (FlowJo, V10, Ashland, Oreg.) after gating on the viable CD4^+ lymphocyte population. […]

B1: heparinase: heparinase III (Sigma), disrupts heparin sulfate side chains on beta-glycan (protein, UniProt Q59289 25-659, looked up)
Heparin-sulfate lyase: QSSSITRKDFDHINLEYSGLEKVNKAVAAGNYDDAAKALLAYYREKSKAREPDFSNAEKPADIRQPIDKVTREMADKALVHQFQPHKGYGYFDYGKDINWQMWPVKDNEVRWQLHRVKWWQAMALVYHATGDEKYAREWVYQYSDWARKNPLGLSQDNDKFVWRPLEVSDRVQSLPPTFSLFVNSPAFTPAFLMEFLNSYHQQADYLSTHYAEQGNHRLFEAQRNLFAGVSFPEFKDSPRWRQTGISVLNTEIKKQVYADGMQFELSPIYHVAAIDIFLKAYGSAKRVNLEKEFPQSYVQTVENMIMALISISLPDYNTPMFGDSWITDKNFRMAQFASWARVFPANQAIKYFATDGKQGKAPNFLSKALSNAGFYTFRSGWDKNATVMVLKASPPGEFHAQPDNGTFELFIKGRNFTPDAGVFVYSGDEAIMKLRNWYRQTRIHSTLTLDNQNMVITKARQNKWETGNNLDVLTYTNPSYPNLDHQRSVLFINKKYFLVIDRAIGEATGNLGVHWQLKEDSNPVFDKTKNRVYTTYRDGNNLMIQSLNADRTSLNEEEGKVSYVYNKELKRPAFVFEKPKKNAGTQNFVSIVYPYDGQKAPEISIRENKGNDFEKGKLNLTLTINGKQQLVLVP
In the case of B1, the “effect of pre-treating WJ-MSC EV on their suppression of CD4+ T cell division” value (“effect of pre-treating WJ-MSC EV” for short) is recorded as “reduced EV suppression”.

B2: heat-inactivated heparinase: heat-inactivated heparinase (control) (protein, UniProt Q59289 25-659, looked up)
Heparin-sulfate lyase: QSSSITRKDFDHINLEYSGLEKVNKAVAAGNYDDAAKALLAYYREKSKAREPDFSNAEKPADIRQPIDKVTREMADKALVHQFQPHKGYGYFDYGKDINWQMWPVKDNEVRWQLHRVKWWQAMALVYHATGDEKYAREWVYQYSDWARKNPLGLSQDNDKFVWRPLEVSDRVQSLPPTFSLFVNSPAFTPAFLMEFLNSYHQQADYLSTHYAEQGNHRLFEAQRNLFAGVSFPEFKDSPRWRQTGISVLNTEIKKQVYADGMQFELSPIYHVAAIDIFLKAYGSAKRVNLEKEFPQSYVQTVENMIMALISISLPDYNTPMFGDSWITDKNFRMAQFASWARVFPANQAIKYFATDGKQGKAPNFLSKALSNAGFYTFRSGWDKNATVMVLKASPPGEFHAQPDNGTFELFIKGRNFTPDAGVFVYSGDEAIMKLRNWYRQTRIHSTLTLDNQNMVITKARQNKWETGNNLDVLTYTNPSYPNLDHQRSVLFINKKYFLVIDRAIGEATGNLGVHWQLKEDSNPVFDKTKNRVYTTYRDGNNLMIQSLNADRTSLNEEEGKVSYVYNKELKRPAFVFEKPKKNAGTQNFVSIVYPYDGQKAPEISIRENKGNDFEKGKLNLTLTINGKQQLVLVP
modifications: heat-inactivated
Turning to B2, the “effect of pre-treating WJ-MSC EV” value is “absent”.

B3: TGF-β3: recombinant human TGF-β3 (Sigma) (protein, UniProt P10600 301-412, looked up)
Transforming growth factor …: ALDTNYCFRNLEENCCVRPLYIDFRQDLGWKWVHEPKGYYANFCSGPCPYLRSADTTHSTVLGLYNTLNPEASASPCCVPQDLEPLTILYYVGRTPKVEQLSNMVVKSCKCS
For B3, the “suppression of mitogen driven T cell division by exogenous TGF-β” value by setting is: (5 ng/ml added to ConA stimulated PBMC) “not”; (10 ng/ml added to ConA stimulated PBMC) “suppressed”; (50 ng/ml added to ConA stimulated PBMC) “suppressed”.

B4: RNase: RNAse A enzyme used to pre-treat EV (protein, UniProt P61823 27-150, looked up)
Ribonuclease pancreatic: KETAAAKFERQHMDSSTSAASSSNYCNQMMKSRNLTKDRCKPVNTFVHESLADVQAVCSQKNVACKNGQTNCYQSYSTMSITDCRETGSSKYPNCAYKTTQANKHIIVACEGNPYVPVHFDASV
Consider B4, for which the “effect of pre-treating WJ-MSC EV” value is on record as “reduced”.

B5: proteinase K: protease used with RNAse A to pre-treat EV (protein, UniProt P06873 106-384, looked up)
Proteinase K: AAQTNAPWGLARISSTSPGTSTYYYDESAGQGSCVYVIDTGIEASHPEFEGRAQMVKTYYYSSRDGNGHGTHCAGTVGSRTYGVAKKTQLFGVKVLDDNGSGQYSTIIAGMDFVASDKNNRNCPKGVVASLSLGGGYSSSVNSAAARLQSSGVMVAVAAGNNNADARNYSPASEPSVCTVGASDRYDRRSSFSNYGSVLDIFGPGTSILSTWIGGSTRSISGTSMATPHVAGLAAYLMTLGKTTAASACRYIADTANKGDLSNIPFGTVNLLAYNNYQA
With B5, the “effect of pre-treating WJ-MSC EV” value is “reduced”.
